# Patent publication US20080213836
# T1: Z-Phe-Arg-MCA
# T1 chain: FR
# T2: Gly-Asp-Asp-Asp-Asp-Lys-β-naphthylamide
# T2 chain: GDDDDK
# T3: Boc-Glu(OBzl)-Ala-Arg-MCA
# T3 chain: EAR
# T4: human high-molecular-weight (HMW) kininogen, P01042
# T4 chain: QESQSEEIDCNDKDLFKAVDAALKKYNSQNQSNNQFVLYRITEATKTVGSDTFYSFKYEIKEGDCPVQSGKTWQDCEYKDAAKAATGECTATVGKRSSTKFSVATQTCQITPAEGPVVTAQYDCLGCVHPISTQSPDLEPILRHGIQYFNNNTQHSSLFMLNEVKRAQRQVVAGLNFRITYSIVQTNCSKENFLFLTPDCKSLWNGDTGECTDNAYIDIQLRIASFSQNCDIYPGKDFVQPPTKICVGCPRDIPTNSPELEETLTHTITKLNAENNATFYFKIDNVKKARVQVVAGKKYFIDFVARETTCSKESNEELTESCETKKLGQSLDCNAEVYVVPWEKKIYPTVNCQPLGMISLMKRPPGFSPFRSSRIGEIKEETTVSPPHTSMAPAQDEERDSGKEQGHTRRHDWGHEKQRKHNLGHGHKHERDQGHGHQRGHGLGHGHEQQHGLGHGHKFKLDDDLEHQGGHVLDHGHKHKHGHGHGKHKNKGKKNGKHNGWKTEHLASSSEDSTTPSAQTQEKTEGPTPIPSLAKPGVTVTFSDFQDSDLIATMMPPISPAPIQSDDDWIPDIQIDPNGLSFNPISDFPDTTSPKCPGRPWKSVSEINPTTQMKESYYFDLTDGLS
# T5: Pro-Phe-Arg-MCA
# T5 chain: PFR
# T6: human fibrinogen, P02671
# T6 chain 1: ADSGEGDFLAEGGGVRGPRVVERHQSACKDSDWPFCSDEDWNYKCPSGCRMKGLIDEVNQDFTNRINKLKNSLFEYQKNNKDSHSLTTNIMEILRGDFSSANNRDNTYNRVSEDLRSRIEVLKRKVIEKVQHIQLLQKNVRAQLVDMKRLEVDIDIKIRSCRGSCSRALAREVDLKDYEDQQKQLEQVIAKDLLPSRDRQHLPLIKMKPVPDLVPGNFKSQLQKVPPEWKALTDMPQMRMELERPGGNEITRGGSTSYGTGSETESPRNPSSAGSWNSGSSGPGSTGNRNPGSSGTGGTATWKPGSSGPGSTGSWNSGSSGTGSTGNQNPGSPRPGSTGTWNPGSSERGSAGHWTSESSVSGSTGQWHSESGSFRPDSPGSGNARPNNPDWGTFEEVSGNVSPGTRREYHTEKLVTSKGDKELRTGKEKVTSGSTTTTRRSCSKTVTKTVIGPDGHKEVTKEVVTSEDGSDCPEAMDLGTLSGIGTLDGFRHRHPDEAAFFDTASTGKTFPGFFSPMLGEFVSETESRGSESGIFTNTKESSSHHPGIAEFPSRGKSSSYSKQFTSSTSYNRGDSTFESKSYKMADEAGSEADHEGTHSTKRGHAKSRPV
# T6 chain 2: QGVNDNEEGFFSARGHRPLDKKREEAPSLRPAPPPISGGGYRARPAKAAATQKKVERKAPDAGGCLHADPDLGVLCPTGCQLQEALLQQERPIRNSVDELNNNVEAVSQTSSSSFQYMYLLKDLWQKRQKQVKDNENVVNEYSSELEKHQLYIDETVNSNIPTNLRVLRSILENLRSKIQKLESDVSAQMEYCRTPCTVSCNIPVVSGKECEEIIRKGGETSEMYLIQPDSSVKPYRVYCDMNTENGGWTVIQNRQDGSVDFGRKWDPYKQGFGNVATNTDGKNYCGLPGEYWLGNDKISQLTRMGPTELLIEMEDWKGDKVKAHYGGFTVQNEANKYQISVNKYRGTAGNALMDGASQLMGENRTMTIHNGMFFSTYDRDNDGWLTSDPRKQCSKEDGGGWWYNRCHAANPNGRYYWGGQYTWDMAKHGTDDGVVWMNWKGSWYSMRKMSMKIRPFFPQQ
# T6 chain 3: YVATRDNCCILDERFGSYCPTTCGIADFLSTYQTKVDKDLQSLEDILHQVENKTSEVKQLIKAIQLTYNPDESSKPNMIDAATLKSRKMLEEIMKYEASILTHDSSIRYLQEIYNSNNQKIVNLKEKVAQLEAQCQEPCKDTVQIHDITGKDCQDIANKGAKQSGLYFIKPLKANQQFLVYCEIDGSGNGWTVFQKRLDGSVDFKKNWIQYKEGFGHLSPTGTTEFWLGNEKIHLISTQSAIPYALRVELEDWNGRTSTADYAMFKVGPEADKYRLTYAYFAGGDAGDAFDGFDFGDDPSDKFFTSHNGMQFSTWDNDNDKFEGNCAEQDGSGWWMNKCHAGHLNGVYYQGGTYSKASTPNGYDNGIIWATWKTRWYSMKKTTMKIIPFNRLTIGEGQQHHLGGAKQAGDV
# B1: Bovine EP serine protease (New England Biolabs) (protein)
# chain: IVGGSDSREGAWPWVVALYFDDQQVCGASLVSRDWLVSAAHCVYGRNMEPSKWKAVLGLHMASNLTSPQIETRLIDQIVINPHYNKRRKNNDIAMMHLEMKVNYTDYIQPICLPEENQVFPPGRICSIAGWGALIYQGSTADVLQEADVPLLSNEKCQQQMPEYNITENMVCAGYEAGGVDSCQGDSGGPLMCQENNRWLLAGVTSFGYQCALPNRPGVYARVPRFTEWIQSFLH
# B2: Bovine EP serine protease (Novagen) (protein)
# chain: B1 chain
# B3: Medaka EP-1 serine protease domain mutant P193E (protein)
# chain: VVGGVNAEKGAWPWMVSLHWRGRHGCGASLIGRDWLLTAAHCVYGKNTHLQYWSAVLGLHAQSSMNSQEVQIRQVDRIIINKNYNRRTKEADIAMMHLQQPVNFTEWVLPVCLASEDQHFPAGRRCFIAGWGRDAEGGSLPDILQEAEVPLVDQDECQRLLPEYTFTSSMLCAGYEEGGVDSCQGDSGGPLMCLEDARWTLIGVTSFGVGCGRPERPGAYARVSAFTSWIAETRRSSFSDLD
# Assays:
# Z-Phe-Arg-MCA = target: T1, Z-Phe-Arg-MCA
# [1] = target: Human plasma fibronectin, P02751
# Chain of Human plasma fibronectin, P02751 (P02751 other isoform, or with tags, fused parts or gaps): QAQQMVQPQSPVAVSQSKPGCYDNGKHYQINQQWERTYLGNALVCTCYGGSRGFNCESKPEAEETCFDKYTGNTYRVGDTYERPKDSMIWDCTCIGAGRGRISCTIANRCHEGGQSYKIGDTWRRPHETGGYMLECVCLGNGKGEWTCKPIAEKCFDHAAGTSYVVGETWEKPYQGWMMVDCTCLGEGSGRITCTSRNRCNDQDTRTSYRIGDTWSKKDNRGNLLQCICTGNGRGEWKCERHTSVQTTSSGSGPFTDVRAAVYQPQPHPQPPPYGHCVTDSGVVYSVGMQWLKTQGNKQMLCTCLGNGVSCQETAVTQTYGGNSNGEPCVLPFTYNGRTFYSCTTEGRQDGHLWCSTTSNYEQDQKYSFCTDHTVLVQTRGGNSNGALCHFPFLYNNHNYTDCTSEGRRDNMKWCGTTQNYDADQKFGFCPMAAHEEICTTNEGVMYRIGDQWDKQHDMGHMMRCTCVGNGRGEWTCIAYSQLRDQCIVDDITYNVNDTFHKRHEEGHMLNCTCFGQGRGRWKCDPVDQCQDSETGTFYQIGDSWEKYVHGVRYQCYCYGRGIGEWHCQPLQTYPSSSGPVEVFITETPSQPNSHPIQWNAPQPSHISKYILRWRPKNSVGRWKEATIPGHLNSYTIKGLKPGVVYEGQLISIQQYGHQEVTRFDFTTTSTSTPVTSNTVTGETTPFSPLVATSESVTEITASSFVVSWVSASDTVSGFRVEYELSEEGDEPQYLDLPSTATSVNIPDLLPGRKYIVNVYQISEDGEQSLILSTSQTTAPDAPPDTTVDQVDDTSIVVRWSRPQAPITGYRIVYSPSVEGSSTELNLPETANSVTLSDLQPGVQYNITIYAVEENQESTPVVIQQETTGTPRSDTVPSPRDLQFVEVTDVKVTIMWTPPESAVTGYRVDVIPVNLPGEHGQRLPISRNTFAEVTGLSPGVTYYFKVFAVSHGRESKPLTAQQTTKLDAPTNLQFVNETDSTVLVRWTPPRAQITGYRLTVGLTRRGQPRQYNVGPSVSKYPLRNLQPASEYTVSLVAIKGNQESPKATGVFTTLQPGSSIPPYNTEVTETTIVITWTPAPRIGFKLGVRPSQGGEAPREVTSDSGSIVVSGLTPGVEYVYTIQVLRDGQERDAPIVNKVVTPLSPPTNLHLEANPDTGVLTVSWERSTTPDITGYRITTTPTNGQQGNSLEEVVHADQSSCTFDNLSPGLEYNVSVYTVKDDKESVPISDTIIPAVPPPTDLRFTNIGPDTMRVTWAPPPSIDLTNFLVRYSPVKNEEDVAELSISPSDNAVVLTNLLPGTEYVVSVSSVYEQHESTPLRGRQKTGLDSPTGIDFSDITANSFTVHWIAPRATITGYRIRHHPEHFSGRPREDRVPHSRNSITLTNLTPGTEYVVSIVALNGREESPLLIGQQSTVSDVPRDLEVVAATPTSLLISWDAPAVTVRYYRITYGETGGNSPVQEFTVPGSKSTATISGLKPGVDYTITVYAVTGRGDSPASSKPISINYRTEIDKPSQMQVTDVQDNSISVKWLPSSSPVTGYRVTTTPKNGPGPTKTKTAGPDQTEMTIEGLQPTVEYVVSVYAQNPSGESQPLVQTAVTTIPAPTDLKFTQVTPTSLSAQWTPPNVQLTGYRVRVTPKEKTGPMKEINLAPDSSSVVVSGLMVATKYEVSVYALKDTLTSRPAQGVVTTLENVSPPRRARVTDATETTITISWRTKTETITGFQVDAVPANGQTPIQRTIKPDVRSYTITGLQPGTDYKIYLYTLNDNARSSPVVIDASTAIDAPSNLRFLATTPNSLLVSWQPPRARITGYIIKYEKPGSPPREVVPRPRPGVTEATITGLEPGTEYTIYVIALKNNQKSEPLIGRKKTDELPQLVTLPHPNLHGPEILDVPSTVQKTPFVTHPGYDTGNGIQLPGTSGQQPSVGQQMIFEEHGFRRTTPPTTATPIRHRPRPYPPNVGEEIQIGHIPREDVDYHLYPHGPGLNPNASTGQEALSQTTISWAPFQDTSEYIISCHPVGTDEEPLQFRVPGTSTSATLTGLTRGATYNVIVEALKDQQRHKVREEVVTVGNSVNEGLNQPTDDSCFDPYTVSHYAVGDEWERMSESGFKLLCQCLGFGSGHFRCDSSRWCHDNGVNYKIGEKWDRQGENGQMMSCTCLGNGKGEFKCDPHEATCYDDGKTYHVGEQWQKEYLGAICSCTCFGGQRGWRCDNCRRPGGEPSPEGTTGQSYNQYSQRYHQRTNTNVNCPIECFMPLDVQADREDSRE
# [2] = target: T2, Gly-Asp-Asp-Asp-Asp-Lys-β-naphthylamide
# [3] = target: D4K-cleavage site-containing control protein (Novagen)
# [4] = target: T3, Boc-Glu(OBzl)-Ala-Arg-MCA
# [5] = target: human single-chain tPA fusion protein with N-terminal His-tag/EP-cleavage site, P00750
# Chain of human single-chain tPA fusion protein with N-terminal His-tag/EP-cleavage site, P00750 (P00750 whole entry, looked up, the tested form may be a part): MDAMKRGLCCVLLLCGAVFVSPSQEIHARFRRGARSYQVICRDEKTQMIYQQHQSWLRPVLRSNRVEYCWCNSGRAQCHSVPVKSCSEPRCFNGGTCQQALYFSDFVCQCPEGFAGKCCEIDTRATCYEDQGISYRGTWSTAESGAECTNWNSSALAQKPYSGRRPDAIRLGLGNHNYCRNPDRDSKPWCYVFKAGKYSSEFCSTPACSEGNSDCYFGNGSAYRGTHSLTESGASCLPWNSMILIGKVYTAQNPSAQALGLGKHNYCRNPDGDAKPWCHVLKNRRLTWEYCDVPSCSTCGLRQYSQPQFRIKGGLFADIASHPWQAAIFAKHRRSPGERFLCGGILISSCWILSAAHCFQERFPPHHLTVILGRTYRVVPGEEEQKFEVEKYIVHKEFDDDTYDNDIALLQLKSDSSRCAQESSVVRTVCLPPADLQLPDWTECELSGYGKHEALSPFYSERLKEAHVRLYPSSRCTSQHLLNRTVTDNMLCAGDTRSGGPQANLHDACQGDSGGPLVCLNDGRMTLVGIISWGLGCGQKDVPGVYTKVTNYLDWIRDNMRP
# [6] = target: T4, human high-molecular-weight (HMW) …
# Pro-Phe-Arg-MCA = target: T5, Pro-Phe-Arg-MCA
# human fibrinogen, P02671 = target: T6, human fibrinogen, P02671
# [7] = target: recombinant fusion protein of Medaka gelatinase A
# [8] = target: recombinant fusion protein of Medaka trypsinogen
Protein,Km (Z-Phe-Arg-MCA),kcat (Z-Phe-Arg-MCA),kcat/Km (mM^-1 · min^-1) (Z-Phe-Arg-MCA),proteolytic activity (SDS-PAGE) [1],Km [2],kcat [2],kcat/Km (mM^-1 · min^-1) [2],cleavage of the fusion protein (SDS-PAGE) [3],Km [4],kcat [4],kcat/Km (mM^-1 · min^-1) [4],cleavage of the fusion protein (SDS-PAGE/Western blot) [5],nonspecific proteolytic activity (SDS-PAGE) [6],Km (Pro-Phe-Arg-MCA),kcat (Pro-Phe-Arg-MCA),kcat/Km (mM^-1 · min^-1) (Pro-Phe-Arg-MCA),proteolytic activity (SDS-PAGE) (mouse laminin),proteolytic activity (gelatin zymography) (gelatin),"nonspecific proteolytic activity (SDS-PAGE) (human fibrinogen, P02671)",cleavage of the fusion protein (SDS-PAGE) [7],other results
B1,400 µM,10 s⁻¹,1500,these substrates were detectably hydrolyzed by the mammalian proteases,500 µM,25 s⁻¹,3000,the mammalian enzymes not only produced the two expected polypeptides but also further degraded the products,400 µM,9.5 s⁻¹,1400,"but not with mammalian ones, showed two polypeptides (53- and 55-kDa)",both of which were degraded noticeably by mammalian EP proteases,2900 µM,21.7 s⁻¹,450,these substrates were detectably hydrolyzed by the mammalian proteases,these substrates were detectably hydrolyzed by the mammalian proteases,both of which were degraded noticeably by mammalian EP proteases,the fusion protein was extensively digested by mammalian EP serine proteases,–
B2,500 µM,12 s⁻¹,1400,these substrates were detectably hydrolyzed by the mammalian proteases,800 µM,12.8 s⁻¹,960,the mammalian enzymes not only produced the two expected polypeptides but also further degraded the products,500 µM,12.3 s⁻¹,1500,"but not with mammalian ones, showed two polypeptides (53- and 55-kDa)",both of which were degraded noticeably by mammalian EP proteases,4000 µM,13.2 s⁻¹,200,these substrates were detectably hydrolyzed by the mammalian proteases,these substrates were detectably hydrolyzed by the mammalian proteases,both of which were degraded noticeably by mammalian EP proteases,the fusion protein was extensively digested by mammalian EP serine proteases,–
B3,200 µM,0.0283 s⁻¹,9,–,400 µM,4.83 s⁻¹,730,–,200 µM,0.0383 s⁻¹,12,–,The mutant proteases had lower nonspecific proteolytic activity for human HMW kininogen,1000 µM,0.45 s⁻¹,27,–,–,The mutant proteases had lower nonspecific proteolytic activity for ... human fibrinogen,–,enzyme activity against wild-type (Z-Phe-Arg-MCA): consistently resulted in reduced enzyme activity for synthetic peptide substrates; hydrolysis [1]: Neither human fibronectin nor laminin was hydrolyzed by the mutants (data not shown); enzyme activity against wild-type [2]: consistently resulted in reduced enzyme activity for synthetic peptide substrates; enzyme activity against wild-type [4]: consistently resulted in reduced enzyme activity for synthetic peptide substrates; enzyme activity against wild-type (Pro-Phe-Arg-MCA): consistently resulted in reduced enzyme activity for synthetic peptide substrates; hydrolysis (mouse laminin): Neither human fibronectin nor laminin was hydrolyzed by the mutants (data not shown); activation of trypsinogen [8]: the other mutants activated trypsinogen at a reduced rate; conversion of trypsinogen to active enzyme [8]: A total of 12 mutants could convert the recombinant Medaka trypsinogen to its active enzyme (data not shown)
